Data as given in paper PMC6697640.

Target: 3X N-terminal FLAG-tagged PTEN (phosphatase and tensin homolog), wild type (UniProt P60484)
Assay: native gel or EMSA; co-IPs from total lysate of BT-549-PTEN cells followed by Western blot under non-denaturing conditions; dimers seen in the input lane and in the co-immunoprecipitate

stoichiometry N: 2
Substance: 3X N-terminal FLAG-tagged PTEN (phosphatase and tensin homolog), wild type, P60484 1-403 (enzyme; other documents disagree on this pair)
